Measured values published in the DeepSol protein solubility set.

Test: soluble on expression in E. coli; label from the status in PepcDB or PDB records
In the case of “MVVISVIAIVLLLVYLDDKLGQFIFRNGRKTVVYPERRSDISLYINGRHLFSDYFAELGRARDHIHVLFYIIKNDETSAPFFQILKEKAAAGVKVRVLTDWVGSFGLPKALIRSLEESGVEFAYARKPRFPFFIYRLNRRNHRKITVIDGRVGYIGGFNIGREYNGKDANFGEWRDYHLKVNGEGVHDLQEQFLHDWEEATGRTVPDKHRYFPPLPAGAIRHQLVATNGAALEEQFIEVIRQAKKEIMIGSPYFIPSRPLFNELMQALRRGVRVTVLVPLKADHLFVKEAAYPYFYRLLKAGARIYRFYQGFYHAKTLVIDEEWCDVGTANFDRRSLFLNGEINCYVFDRGFTRLVKRAIERDLLRRRAADGRLLAKTFAS”, the “soluble on expression in E. coli” value is reported as “not soluble”.
For “MVVLNPNNWHWVDKNTLPWSKDYLNGKLTSLSTVSSDGKSKIELTQVSSITGDSNVSQRKGKPICYFDLQLSMNVKVTNLDTNKDDEDDDGILADGKLEIPEFMHDESDIPILSQGFDAFDGLVRSEFVPKVVETLLKYQDDLIKEHSKDIQV”, the “soluble on expression in E. coli” value was “soluble”.
With “MVVLVTRSLLPALFFASRAPFAAATTSARFQRGLATMAAEAFTKHEVIPDVLASNPPSKVVSVKFNSGVEANLGNVLTPTQVKDTPEVKWDAEPGALYTLIKTDPDAPSRKEPTYREWHHWLVVNIPGNDIAKGDTLSEYIGAGPPPKTGLHRYVYLIYKQSGRIEDAEHGRLTNTSGDKRGGWKAADFVAKHKLGAPVFGNLFQAEYDDYVPILNKQLGA” the “soluble on expression in E. coli” value was “not soluble”.
With “MVVSDLKLRDMNEADRHAVGFVGFAAWRAGDAFDASYLDSYVVERVRGEFESFAKSPTGDVVVAEIDGVVVGWGACDAKPHHISDLWVDPNWQGKGIGKALIVHFLDRMRAEGLPLATIDTHARNRAAIGLYERCGFEIVWRGMEWSDIMKVELEKVKLEQKLSP” the “soluble on expression in E. coli” value was “soluble”.
With “MVVTCPKCGAKNRLGTPPPGQVPVCGACKTPLPWVVEADEKGFAQEVAGAPLTLVDFFAPWCGPCRLVSPILEELARDHAGRLKVVKVNVDEHPGLAARYGVRSVPTLVLFRRGAPVATWVGASPRRVLEERLRPYLEGR” the “soluble on expression in E. coli” value was “soluble”.
With “MVVVTGREPDSRRQDGAMSSSDAEDDFLEPATPTATQAGHALPLLPQEFPEVVPLNIGGAHFTTRLSTLRCYEDTMLAAMFSGRHYIPTDSEGRYFIDRDGTHFGDVLNFLRSGDLPPRERVRAVYKEAQYYAIGPLLEQLENMQPLKGEKVRQAFLGLMPYYKDHLERIVEIARLRAVQRKARFAKLKVCVFKEEMPITPYECPLLNSLRFERSESDGQLFEHHCEVDVSFGPWEAVADVYDLLHCLVTDLSAQGLTVDHQCIGVCDKHLVNHYYCKRPIYEFKITW” the “soluble on expression in E. coli” value was “soluble”.
With “MVWSSETFGMTPEEQIEWMALDDQEKKKLERKRARNRQAATKCRQKKMDRIKELEEQVLHEKHRGQRLDAELLELNRALEHFRRTVEHHSGNGCPNNSIRV” the “soluble on expression in E. coli” value was “not soluble”.
For “MVYVAVLANIAGNFPALTAALEKIEELKEEGYEIEKYYILGNIVGLFPYPREVIEAIKNLAKTSNVKVIRGKYDQLIAMSDPHAGDPKYIDKLEIPDHLKATLKYTWEKLGHEGREYLRDLPIYLVDKIGKNEIFGVYGSPVNPFDGEILPDQPTSYYEAIMRPVKEYEMLLVASPRYPLDAMTMYGRVVCPGSIGFPPAREHKATFALVDAETLKVKFIEVEYDKKIIEDRIKLEKLPEEVIKILYHGGKA”, the “soluble on expression in E. coli” value was “soluble”.
For “MWEANELSSTNTFSHQAEMDWPSANWWQRYQDAQLNHLIEEALQHSPSLCMAMARLKGAQGFARQAGAIRSFDLGLAASATESKVSERYQSATPPDGWNDYGTLTLNFQYDFDFWGKNRAAVVAATSELAAAEAESVAARLMISTSIANAYAELARLYANQETVHAALQVRNKTVELLEKRYANGLETLGSVSQAKAVAASVEAELLGIQESIQLQKNALAALVGQGPDRAASIEEPHITLTSRYGLPSEAGVGLLGHRADITAARWRAEAAAQQVGIAQAQFYPDVTLSAFIGYQAFGLDHLFDSGNDAGAIGPAIYLPLFTGGRLEGQLTSAEARYQEAVAQYNGTLVQALHEIADVVTSSQALQARINKTEQAVQQAEQALHIATNRYQGGLATYLDVLVAEESLLNNQRALVNLQSRAFSLDLALIHALGGGFETTES”, the “soluble on expression in E. coli” value was “soluble”.
With “MWSCPTLNAPRAAQKWLPVRATPHLCVLHMSRLMLSSTLIDELSYVRKDQLETSALFELIAHRYERHSIAITANEPFSGWSDAMTVAAIDRLVHHSTIIEMNGESYRKRAAVARGASTQNANDEPEDPPNRSSLEHHHHHH” the “soluble on expression in E. coli” value was “not soluble”.
With “MYAGINYDQLFGTEQVRERQLPLHSSQAQHFLNEVKPILDNRCVVCHACYDAPCQLKMTSAEGIDRGASKALVYQGTRLTAATPTRLYEDAQLTQEWRAAGFHPVLNERNQTAQANLDAGVMARLLMQKERHPLPQQDQLQGFDFSIDREQTCPTINEMDHFEQVNPNWGMPFGMPNLSPKEYTTLLSWLQEGAVMNQALPLSAQEQALVTEYEALLNHSSRKNQLAARYIYEHLFLSHLYFSEIAQERPRFFKLIRSSTPPGEPVKRIVTRRPYDDPGVERVYYRLVPEQETIVDKTHMPFALNKQRIANWKLWFIDADYEVAELPSYRPDIAANPMSAFIDLPVKARFKFLLDNAQNTVMAFIKGPVCRGQLALNVINDRFWVFFLDPEKADLPEVNEFYRSQVNNLKLPAEQENTALPLSNWVRYSLQQSRYLEAKSEFINQWFKNGTHLTTDIIWDGAGINPNAALTIFRHFDSASVVQGLVGEPPKTAWIMDYALLERIHYLLVAGFDVYGNFGHQLITRMFMDFLRMEGESNFVALLPRDMRHQELSSWYQNQSVQFSDFLQRNVKPFDQPTSVNYVTDNPKQELFAKLRKQVQSVLSDRYVITQTGFKAEHEFALRQIDHLRGEGLLPIPQLMMLMIESEQGKPQLFTLIHNNAHTNISSLFDEQNNRDPKNDNLTLVRGVVGSYPSAYLTLKENQIPELYQRLAAMKSEQDYVALLDRFAVRRSSPEFWAFSDLVHQWYRQDQPIEFGLLDYNRFENRLEHHHHHH” the “soluble on expression in E. coli” value was “not soluble”.
In the case of “MYCTIDDLLGQIDKSKLIELTNDRADPAVDENGQEIIHEGNANSAIEAATAVVNTYIAMRYPVPLSPVPKIVSKLTADIAIYNLFTRHYNDEDNVFVRRYRDAIRLLEKIAADEVKLTANESGIRTYARRKVFGEDFRRMYD”, the “soluble on expression in E. coli” value is reported as “not soluble”.
In the case of “MYDLLVIGAGPGGYVAAIRAAQLGMKVGVVEKEKALGGTCLRVGCIPSKALLETTERIYEAKKGLLGAKVKGVELDLPALMAHKDKVVQANTQGVEFLFKKNGIARHQGTARFLSERKVLVEETGEELEARYILIATGSAPLIPPWAQVDYERVVTSTEALSFPEVPKRLIVVGGGVIGLELGVVWHRLGAEVIVLEYMDRILPTMDLEVSRAAERVFKKQGLTIRTGVRVTAVVPEAKGARVELEGARSWKTDRVLVAVGRRPYTEGLSLENAGLSTDERGRIPVDEHLRTRVPHIYAIGDVVRGPMLAHKASEEGIAAVEHMVRGFGHVDYQAIPSVVYTHPEIAAVGYTEEELKAQGIPYKVGKFPYSASGRARAMGETEGFIKVLAHAKTDRILGVHGIGARVGDVLAEAALALFFKASAEDLGRAPHAHPSLSEILKEAALAAWERPIHL”, the “soluble on expression in E. coli” value is reported as “soluble”.
In the case of “MYEAIGHRVEDGVAEITIKLPRHRNALSVKAMQEVTDALNRAEEDDSVGAVMITGAEDAFCAGFYLREIPLDKGVAGVRDHFRIAALWWHQMIHKIIRVKRPVLAAINGVAAGGGLGISLASDMAICADSAKFVCAWHTIGIGNDTATSYSLARIVGMRRAMELMLTNRTLYPEEAKDWGLVSRVYPKDEFREVAWKVARELAAAPTHLQVMAKERFHAGWMQPVEECTEFEIQNVIASVTHPHFMPCLTRFLDGHRADRPQVELPAGV”, the “soluble on expression in E. coli” value is reported as “soluble”.
In the case of “MYEGEIAIGPVHSTMLEPHRLRLFIEDEIVKDAELTIGVNHRGVERLMEGLPVEKACILCEKICGICSHIHLWSAARVAEIGCNIEVPERANHIRIIVEELERLHSHTLLFGHAFEILGHETMSMRCFMLREPIMQVFFEISGSRVHYSCPIIGGIRPRCNISETQISHIHDKISQYEEGLTKFIERMLNDPMIISRVKDVGVMDRKTAAKFHAVGPTARGSNVKSDMRKWGWVPEYDPYDFDEILFDSGDVFARLAVRFYECLESVKIIRQALDALKDTSDKRIYNPNYELNEFKPINCYTEAQRGEQYYSYGLDDEGLVRQAKIRTPTATNLGAMEDIVKGYHVSDAELIIASCDPCFTCTDRLMVLKEPFKK”, the “soluble on expression in E. coli” value is reported as “not soluble”.
With “MYEIPWSKPVNINMLDGRCRTVVGPLDAMHCLQSEWPVRDGAYYGCAIRACNAALKRRKRPEDARAAFIAALREAFLTVVPMQEEGHGPRPLE” the “soluble on expression in E. coli” value was “not soluble”.
With “MYGTEQVISGTIIAGPELDPIEGYICVKNGIITEIGEEHTYSANIIAPCFVNAHTHLGDSVCKDPPLGKTSGFRVQKDLDSLVKPPDGLKHRILRDTSYKTLIQYIRKSLLDMIETGTCAFADFREGGVVGLAALNKALEGLNLHSLIFGRPTEPQLPLEVVLAEVRRVLSHSDGLGMSGANDLDMELLQEMTTCTRDRKKLFAIHAGEKNRSDIEKALSLEPDLLIHLTHATKKDLEDVAQTGAPVVVCPRSNFVTGSGMAPIAEMLEAEIRVAAGTDNVMLNSVNMFAEMEFMSKVFSIEDRQVFKICTLNGSFVMGPDSTGSIEKGNKANLMILNGSSNNLAGIKDPISGITKRARPDDILAVLHS” the “soluble on expression in E. coli” value was “soluble”.
With “MYIMKQSGWLELICGSMFSGKSEELIRRVKRATYAKQEVRVFKPVIDNRYSEAAVVSHNGTSMTSYAISSAADIWDHISESTDVVAVDEVQFFDQEIVEVLSSLADKGYRVIAAGLDMDFRGEPFGVVPNIMAIAESVTKLQAVCSVCGSPASRTQRLIDGKPASYDDPVILVGAAESYEARCRHHHEVPGKSKKLEHHHHHH” the “soluble on expression in E. coli” value was “soluble”.
For “MYIPNAFRESDTHNLQEHMDKTRLAILVTQGDDGLHATHLPLLLRSDEGPYGTLYGHMAKANPQWQQLNADAEAMVIFPGEDAYVSPSFYPSKAEHGKVVPTWNYLAVHAYGQAECFTDPDRLHQLLNDLTDRHESSRAQPWSINDAPADYIAKMLGAIVGFSIPVQRLQGKRKLSQNRSAEDMAGVRDGLGASHLANDQQIARLMSGWRPS”, the “soluble on expression in E. coli” value was “not soluble”.
With “MYIQILGSAAGGGFPQWNCNCVNCAGFRDGSLRAQARTQSSIALSDDGVNWVLCNASPDIRAQLQGFAPMQPGRALRDTGISAIVLMDSQIDHTTGLLSLREGCPHQVWCTDMVHEDLSTGFPLFEMLKHWNGGLNWNRIELQGSFVIPACPNLRFTPFPLRSAAPPYSPHRFDPHPGDNIGLLVEDTRTGGKLFYAPGLGKVDEALAEKMRDADCLLVDGTMWDDDEMQRRGVGTRTGREMGHLAQNGPGGMLDVLEGFPEQRKVLIHINNTNPILDEDSPERAELVRRNVEVAFDGMSIELLEHHHHHH” the “soluble on expression in E. coli” value was “soluble”.
In the case of “MYKLDLPTLMDAFHKVFHVSMLRKCITHQENVISEPPPDLLENMMIVGMLIPNLLGVSSEMVGR”, the “soluble on expression in E. coli” value is reported as “not soluble”.
With “MYLSHFGFRVQPFSLTPNTEMFLGLVPHYEAIQTILAAVQMGEGVIKVTGEVGTGKTMVCRKLIEQIESQVELVYLPNPVLNGEQLQFAVARELGIDNDDPLRIVSLIQEHLIRVHSTGKKTVLIVDEAQALSPEALETLRLFGNLETEQDKLIQLVLFGQPELDERLSMHELRQFRQRITFSCGLRPLSVDEGVAYINNRLDKAGNGAHIFSIEQKKAIWRSAMGIPRLINQISHKALLAAFNDRCTLLKNHHVYAAMHDTFDARKPKFKTPVFWGWSQPLEHHHHHH” the “soluble on expression in E. coli” value was “not soluble”.
With “MYNGYADVDDLHVYVYCGNTPELRLQELVADVKITIQPENEKSCCIKKFLSLKDNKFESIAMSADFGDFDEMVYNYAIDGKCTIEADITIIKEVGDARAKLRDFGEETRDVSDVVINVQNEKFHVSKMFLAAQSSHFKLLFKNSNDSEIALDGIIPEDFQNFLELLYGEPALTEDSVEGILQIAARFDVSTVIRKGEDFLLQKSEFSPEKKLQMSLKYNLENLKSKCLSEVKSVADIRSVLPKDIKEMDHSVMAELLEKSLGLQKT” the “soluble on expression in E. coli” value was “not soluble”.
For “MYNNEPGAQSDPTLGYTFQNDFLALSQAFSLPEIDYTDISQREQLAAAIKRWPLLAEFAQPHSLRKP”, the “soluble on expression in E. coli” value was “not soluble”.
